According to patent US20180344813A1, “ENGINEERED POLYPEPTIDES HAVING ENHANCED DURATION OF ACTION WITH REDUCED IMMUNOGENICITY” (priority 2016, published 2018):

What was measured:
[1] = target: T1, GLP-1 receptor (Rattus norvegicus, UniProt P32301); test: GLP-1 receptor functional assay: cAMP induction (HTRF) in rat thyroid carcinoma 6-23 (clone 6) cells; assay type: cell-based
T1 construct: functional activity was determined using cells that endogenously express GLP-1R; endogenous in cells; host or cells: rat thyroid carcinoma 6-23 (clone 6) cells
T1 sequence (P32301 22-463): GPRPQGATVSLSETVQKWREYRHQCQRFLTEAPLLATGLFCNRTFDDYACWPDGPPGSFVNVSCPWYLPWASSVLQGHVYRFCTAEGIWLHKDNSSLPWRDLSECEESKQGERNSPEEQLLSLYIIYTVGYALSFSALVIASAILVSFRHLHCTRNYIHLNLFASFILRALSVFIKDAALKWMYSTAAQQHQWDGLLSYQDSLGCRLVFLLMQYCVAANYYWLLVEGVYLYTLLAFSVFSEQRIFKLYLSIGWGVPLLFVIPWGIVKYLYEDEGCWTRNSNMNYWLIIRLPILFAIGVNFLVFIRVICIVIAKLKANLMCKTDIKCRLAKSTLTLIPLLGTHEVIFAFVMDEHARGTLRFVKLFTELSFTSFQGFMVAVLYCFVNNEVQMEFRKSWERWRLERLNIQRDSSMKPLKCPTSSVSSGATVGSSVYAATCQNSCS

[2] = tested on: NIH/Swiss mice; test: OGTT DOA (oral glucose tolerance test duration of action); assay type: in vivo, mouse; details: NIH/Swiss mice; drug given 24 hours before OGTT
Experimental: For example, duration can be performed using an oral glucose tolerance test (OGTT) in which the drug is administered to the subject at a desired time point before the glucose is administered orally(to measure drug duration of action; OGTT DOA) and glucose blood levels are measured (e.g. readily done in mice).
Drug was administered to 4-hr fasted NIH/Swiss mice. […] Blood glucose was measured with a OneTouch® Ultra® (LifeScan, Inc., a Johnson & Johnson Company, Milpitas, Calif.). *p<0.05 vs. vehicle control; ANOVA, Dunnett's test. Glucose lowering as percent lowering compared to vehicle is given (negative value indicates lowering of glucose) at 30 minutes post gavage.

B1: HGEGTFTSDLSKQLEEEAVRLFIEWLKNTGGGGSASGSLAEAKEAANAELDSYGVS DFYKRLIDKAKTVEGVEALKDAILAALP (protein)
chain: HGEGTFTSDLSKQLEEEAVRLFIEWLKNTGGGGSASGSLAEAKEAANAELDSYGVSDFYKRLIDKAKTVEGVEALKDAILAALP
in vitro activity against the GLP-1 receptor [1]: active in vitro against the GLP-1 receptor
activity in OGTT DOA when dosed at t-24 hours [2]: did not display 24 duration
